Article PMC4837482, “The complex binding mode of the peptide hormone H2 relaxin to its receptor RXFP1” (Nature Communications, 2016)
Numbering of substitutions follows the chain as printed.

How the values were obtained:
Assay in all cases: cAMP activity assay (pCRE β-galactosidase reporter), transfected HEK293T cells
Assay type in all cases: cell-based
RXFP1 F54A/Y58A = target: T1, RXFP1 F54A/Y58A (Homo sapiens, UniProt Q9HBX9, F76A/Y80A); conditions: construct F54A/Y58A, ±s.e.m.
T1 construct: cells expressing full-length RXFP1 and mutants; expressed in transfected cells; host or cells: HEK293T
T1 sequence (Q9HBX9 23-757 F76A/Y80A limits assumed): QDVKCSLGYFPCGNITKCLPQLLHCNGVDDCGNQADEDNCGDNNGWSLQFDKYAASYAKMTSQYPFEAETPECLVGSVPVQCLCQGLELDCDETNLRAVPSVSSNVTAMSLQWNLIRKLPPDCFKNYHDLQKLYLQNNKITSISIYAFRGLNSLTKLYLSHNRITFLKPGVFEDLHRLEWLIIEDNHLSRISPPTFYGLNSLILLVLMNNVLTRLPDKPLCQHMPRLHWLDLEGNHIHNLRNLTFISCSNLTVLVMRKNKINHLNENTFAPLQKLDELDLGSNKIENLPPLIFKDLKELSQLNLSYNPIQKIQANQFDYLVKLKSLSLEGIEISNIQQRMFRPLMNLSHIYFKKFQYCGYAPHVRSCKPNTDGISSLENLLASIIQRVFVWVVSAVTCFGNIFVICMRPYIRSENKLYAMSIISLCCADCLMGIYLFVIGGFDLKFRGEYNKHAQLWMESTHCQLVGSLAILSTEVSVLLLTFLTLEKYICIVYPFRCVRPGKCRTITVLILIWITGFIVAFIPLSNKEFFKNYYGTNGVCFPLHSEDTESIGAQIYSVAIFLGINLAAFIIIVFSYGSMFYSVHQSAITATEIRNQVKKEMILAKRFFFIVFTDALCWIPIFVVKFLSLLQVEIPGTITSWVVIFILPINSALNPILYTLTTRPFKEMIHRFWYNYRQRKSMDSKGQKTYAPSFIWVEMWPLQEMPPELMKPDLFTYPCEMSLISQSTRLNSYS
Procedure, shortened: (§1)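 HEK293T cells transfected with mutant RXFP1 and pCRE β-galactosidase reporter, stimulated with H2 relaxin in minimal media/1% DMSO. β-Galactosidase read with chlorophenol red-β-D-galactopyranoside at 570 nm; responses pooled from ≥3 triplicate experiments as % of 5 μM forskolin maximum.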

RXFP1 = target: T2, RXFP1 (Homo sapiens, UniProt Q9HBX9); conditions: construct RXFP1 (wild type), ±s.e.m.
T2 construct: transiently transfected human embryonic kidney (HEK) 293T cells expressing full-length RXFP1 and mutants; expressed in transfected cells; host or cells: HEK293T
T2 sequence (Q9HBX9 1-757): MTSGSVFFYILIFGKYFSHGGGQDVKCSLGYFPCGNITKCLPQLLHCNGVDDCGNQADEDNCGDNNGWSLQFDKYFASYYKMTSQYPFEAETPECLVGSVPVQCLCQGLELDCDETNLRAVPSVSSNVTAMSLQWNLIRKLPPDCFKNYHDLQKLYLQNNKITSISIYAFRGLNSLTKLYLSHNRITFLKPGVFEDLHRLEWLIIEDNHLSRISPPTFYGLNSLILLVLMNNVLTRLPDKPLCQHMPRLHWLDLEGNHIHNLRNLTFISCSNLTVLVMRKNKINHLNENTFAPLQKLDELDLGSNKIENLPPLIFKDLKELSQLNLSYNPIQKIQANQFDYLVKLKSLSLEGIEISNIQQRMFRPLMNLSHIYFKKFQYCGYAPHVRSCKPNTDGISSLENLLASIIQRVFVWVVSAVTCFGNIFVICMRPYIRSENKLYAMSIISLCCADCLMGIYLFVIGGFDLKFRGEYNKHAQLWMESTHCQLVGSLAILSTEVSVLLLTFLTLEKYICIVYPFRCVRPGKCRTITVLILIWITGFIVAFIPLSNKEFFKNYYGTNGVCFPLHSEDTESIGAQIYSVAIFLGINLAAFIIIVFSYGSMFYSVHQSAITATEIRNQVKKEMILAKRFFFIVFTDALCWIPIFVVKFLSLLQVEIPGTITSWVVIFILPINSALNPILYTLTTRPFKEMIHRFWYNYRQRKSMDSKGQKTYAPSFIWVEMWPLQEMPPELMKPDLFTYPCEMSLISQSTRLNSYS
Procedure, shortened: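 Absorbance at 570 nm from β-galactosidase cleavage of chlorophenol red-β-D-galactopyranoside, expressed as percentage of the maximal 5 μM Forskolin response (mean ± s.e.m., ≥3 experiments in triplicate). Stimulant was H2 relaxin in minimal media containing 1% DMSO.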

RXFP1 F50A = target: T3, RXFP1 F50A (Homo sapiens, UniProt Q9HBX9, F72A); conditions: construct F50A, ±s.e.m.
T3 construct: expressed in transfected cells; host or cells: HEK293T
T3 sequence (Q9HBX9 23-757 F72A limits assumed): T1 sequence (Q9HBX9 23-757 F76A/Y80A limits assumed) with F50A, A54F, A58Y
Procedure, shortened: as §1

[1] = percentage of maximum response to 5 μM Forskolin

Substance: H2 relaxin: two-chain 6-kDa peptide hormone structurally related to insulin; recombinant human gene-2 H2 relaxin provided by Corthera
- H2 relaxin pEC50 (RXFP1 F54A/Y58A; cAMP reporter): 9.87±0.08 (5)***^,#,θ
- H2 relaxin Emax (RXFP1 F54A/Y58A; [1]): 99.94±2.19 (5) %
- H2 relaxin pEC50 (RXFP1; cAMP reporter): 10.97±0.05 (6)
- H2 relaxin Emax (RXFP1; [1]): 116.3±4.2 (6) %
- H2 relaxin pEC50 (RXFP1 F50A; cAMP reporter): 9.45±0.07 (4)
- H2 relaxin Emax (RXFP1 F50A; [1]): 91.9±2.1 (4) %
